Laboratory results from PMC10514313, “Identification of enzymatic functions of osmo-regulated periplasmic glucan biosynthesis proteins from Escherichia coli reveals a novel glycoside hydrolase family” (Communications Biology, 2023).

Tests used:
EcOpgD = molecular target: T1, EcOpgD (Escherichia coli, UniProt P40120, D388N); assay: X-ray crystal structure of the complex ([…] Å); type: binding; settings: co-crystallised with β-1,2-glucan of average DP 121, Sop13 is the part seen in density (chain B; DP11 in chain A); pH 4.0; subsites -7 to +6; Table 3 prints the mutant as D378N
T1 construct: gene mdoD; 60601 Da; homodimer, Loop A of the other subunit completes the site
T1 sequence (P40120 33-551 D388N): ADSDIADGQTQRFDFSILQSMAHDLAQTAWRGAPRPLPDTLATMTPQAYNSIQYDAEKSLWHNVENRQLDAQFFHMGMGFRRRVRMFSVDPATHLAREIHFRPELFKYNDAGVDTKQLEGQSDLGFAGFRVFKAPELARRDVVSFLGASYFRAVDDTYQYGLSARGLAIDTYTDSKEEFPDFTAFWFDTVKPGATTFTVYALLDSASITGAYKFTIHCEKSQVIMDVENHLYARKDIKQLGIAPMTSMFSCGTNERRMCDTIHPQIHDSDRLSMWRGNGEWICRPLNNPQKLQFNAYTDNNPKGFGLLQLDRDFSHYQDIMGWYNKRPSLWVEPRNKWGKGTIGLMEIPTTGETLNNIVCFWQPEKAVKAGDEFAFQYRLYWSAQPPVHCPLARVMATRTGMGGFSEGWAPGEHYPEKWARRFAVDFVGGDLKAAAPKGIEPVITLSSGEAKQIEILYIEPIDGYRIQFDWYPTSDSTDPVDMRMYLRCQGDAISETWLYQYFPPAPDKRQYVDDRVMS

EcOpgG = molecular target: T2, EcOpgG (Escherichia coli, UniProt P33136, D361N); assay: X-ray crystal structure of the complex ([…] Å); type: binding; settings: crystallised and soaked with β-1,2-glucan of average DP 17.7, Sop16 is the part seen in density; pH 5.0
T2 construct: gene mdoG; 56543 Da; homodimer
T2 sequence (P33136 23-511 D361N): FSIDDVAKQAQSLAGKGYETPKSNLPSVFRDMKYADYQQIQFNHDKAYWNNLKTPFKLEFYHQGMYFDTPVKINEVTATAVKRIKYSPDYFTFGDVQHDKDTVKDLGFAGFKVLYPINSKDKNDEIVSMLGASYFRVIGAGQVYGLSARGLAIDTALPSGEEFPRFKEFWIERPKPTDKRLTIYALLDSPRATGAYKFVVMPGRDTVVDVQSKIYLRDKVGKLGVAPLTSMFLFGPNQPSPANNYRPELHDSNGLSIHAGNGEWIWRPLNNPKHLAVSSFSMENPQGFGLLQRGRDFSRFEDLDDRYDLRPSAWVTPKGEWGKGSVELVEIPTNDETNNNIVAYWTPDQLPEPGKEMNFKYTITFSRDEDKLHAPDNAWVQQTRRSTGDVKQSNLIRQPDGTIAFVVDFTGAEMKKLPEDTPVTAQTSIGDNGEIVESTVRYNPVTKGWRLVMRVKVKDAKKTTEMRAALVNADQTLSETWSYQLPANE

[1] = molecular target: the molecule itself; assay: SEC; Superdex 200GL (24 ml), 20 mM Tris-HCl pH 7.5, 100 mM NaCl, 0.5 mg/mL protein loaded, 0.3 mL/min; molecular weight from marker proteins
[2] = molecular target: the molecule itself; assay: crystal structure; ligand-free EcOpgD D388N, 2.95 Å, 12 monomers (six dimers) in the asymmetric unit; 0.1 M Tris-HCl pH 8.5, 0.1 M trimethylamine-N-oxide, 17% PEG 2000 MME, 20 °C
[3] = molecular target: the molecule itself; assay: crystal structure; EcOpgG D361N with β-1,2-glucan, 1.81 Å, one chain in the asymmetric unit, dimer with a symmetry mate; 0.1 M MMT pH 5.0, 27% PEG 400, 20 °C

In the case of OC[C@H]1O[C@@H](O[C@H]2[C@H](O[C@H]3[C@H](O[C@H]4[C@H](O[C@H]5[C@H](O[C@H]6[C@H](O[C@H]7[C@H](O[C@H]8[C@H](O[C@H]9[C@H](O[C@H]%10[C@H](O[C@H]%11[C@H](O[C@H]%12[C@H](O[C@H]%13C(O)O[C@H](CO)[C@@H](O)[C@@H]%13O)O[C@H](CO)[C@@H](O)[C@@H]%12O)O[C@H](CO)[C@@H](O)[C@@H]%11O)O[C@H](CO)[C@@H](O)[C@@H]%10O)O[C@H](CO)[C@@H](O)[C@@H]9O)O[C@H](CO)[C@@H](O)[C@@H]8O)O[C@H](CO)[C@@H](O)[C@@H]7O)O[C@H](CO)[C@@H](O)[C@@H]6O)O[C@H](CO)[C@@H](O)[C@@H]5O)O[C@H](CO)[C@@H](O)[C@@H]4O)O[C@H](CO)[C@@H](O)[C@@H]3O)O[C@H](CO)[C@@H](O)[C@@H]2O)[C@H](O)[C@@H](O)[C@@H]1O (stereo partly drawn) [Sop13], the “X-ray crystal structure of the complex (2.06 Å)” value (EcOpgD) is reported as “electron densities of β-1,2-glucans with DP11 and DP13 (Sop11 and Sop13, respectively) were clearly observed”.

With OC[C@H]1O[C@@H](O[C@H]2[C@H](O[C@H]3[C@H](O[C@H]4[C@H](O[C@H]5[C@H](O[C@H]6[C@H](O[C@H]7[C@H](O[C@H]8[C@H](O[C@H]9[C@H](O[C@H]%10[C@H](O[C@H]%11[C@H](O[C@H]%12[C@H](O[C@H]%13[C@H](O[C@H]%14[C@H](O[C@H]%15[C@H](O[C@H]%16C(O)O[C@H](CO)[C@@H](O)[C@@H]%16O)O[C@H](CO)[C@@H](O)[C@@H]%15O)O[C@H](CO)[C@@H](O)[C@@H]%14O)O[C@H](CO)[C@@H](O)[C@@H]%13O)O[C@H](CO)[C@@H](O)[C@@H]%12O)O[C@H](CO)[C@@H](O)[C@@H]%11O)O[C@H](CO)[C@@H](O)[C@@H]%10O)O[C@H](CO)[C@@H](O)[C@@H]9O)O[C@H](CO)[C@@H](O)[C@@H]8O)O[C@H](CO)[C@@H](O)[C@@H]7O)O[C@H](CO)[C@@H](O)[C@@H]6O)O[C@H](CO)[C@@H](O)[C@@H]5O)O[C@H](CO)[C@@H](O)[C@@H]4O)O[C@H](CO)[C@@H](O)[C@@H]3O)O[C@H](CO)[C@@H](O)[C@@H]2O)[C@H](O)[C@@H](O)[C@@H]1O (stereo partly drawn) [Sop16] the “X-ray crystal structure of the complex (1.81 Å)” value (EcOpgG) was “In the catalytic pocket of the complex, the electron density of a Sop16 molecule was observed”.

B1: OpgD from E. coli (EcOpgD), wild type, without signal sequence, C-terminal His6-tag (enzyme, Escherichia coli, UniProt P40120 33-551, looked up)
chain: ADSDIADGQTQRFDFSILQSMAHDLAQTAWRGAPRPLPDTLATMTPQAYNSIQYDAEKSLWHNVENRQLDAQFFHMGMGFRRRVRMFSVDPATHLAREIHFRPELFKYNDAGVDTKQLEGQSDLGFAGFRVFKAPELARRDVVSFLGASYFRAVDDTYQYGLSARGLAIDTYTDSKEEFPDFTAFWFDTVKPGATTFTVYALLDSASITGAYKFTIHCEKSQVIMDVENHLYARKDIKQLGIAPMTSMFSCGTNERRMCDTIHPQIHDSDRLSMWRGNGEWICRPLNNPQKLQFNAYTDNNPKGFGLLQLDRDFSHYQDIMGWYNKRPSLWVEPRNKWGKGTIGLMEIPTTGETLDNIVCFWQPEKAVKAGDEFAFQYRLYWSAQPPVHCPLARVMATRTGMGGFSEGWAPGEHYPEKWARRFAVDFVGGDLKAAAPKGIEPVITLSSGEAKQIEILYIEPIDGYRIQFDWYPTSDSTDPVDMRMYLRCQGDAISETWLYQYFPPAPDKRQYVDDRVMS
notes: OpgD (glucans biosynthesis protein D) of Escherichia coli, gene amplified from a colony of E. coli BL21(DE3), GenBank CAQ31910.2; theoretical mass 60601 Da; Cloned between the XhoI and NdeI sites of pET30a; also called MdoD; source: E. coli BL21(DE3), purified (HisTrap FF crude)
In the case of B1, the “stoichiometry N” value [1] is reported as 2.

B2: EcOpgD D388N mutant, without signal sequence, C-terminal His6-tag (enzyme, Escherichia coli, UniProt P40120 33-551, looked up)
chain: ADSDIADGQTQRFDFSILQSMAHDLAQTAWRGAPRPLPDTLATMTPQAYNSIQYDAEKSLWHNVENRQLDAQFFHMGMGFRRRVRMFSVDPATHLAREIHFRPELFKYNDAGVDTKQLEGQSDLGFAGFRVFKAPELARRDVVSFLGASYFRAVDDTYQYGLSARGLAIDTYTDSKEEFPDFTAFWFDTVKPGATTFTVYALLDSASITGAYKFTIHCEKSQVIMDVENHLYARKDIKQLGIAPMTSMFSCGTNERRMCDTIHPQIHDSDRLSMWRGNGEWICRPLNNPQKLQFNAYTDNNPKGFGLLQLDRDFSHYQDIMGWYNKRPSLWVEPRNKWGKGTIGLMEIPTTGETLNNIVCFWQPEKAVKAGDEFAFQYRLYWSAQPPVHCPLARVMATRTGMGGFSEGWAPGEHYPEKWARRFAVDFVGGDLKAAAPKGIEPVITLSSGEAKQIEILYIEPIDGYRIQFDWYPTSDSTDPVDMRMYLRCQGDAISETWLYQYFPPAPDKRQYVDDRVMS
notes: made from the EcOpgD plasmid of m1; text and methods say D388N; source: E. coli BL21(DE3), purified (HisTrap FF crude)
B2: binds [2].

B3: OpgG from E. coli (EcOpgG), wild type, without signal sequence, C-terminal His6-tag (enzyme, Escherichia coli, UniProt P33136 23-511, looked up)
chain: FSIDDVAKQAQSLAGKGYETPKSNLPSVFRDMKYADYQQIQFNHDKAYWNNLKTPFKLEFYHQGMYFDTPVKINEVTATAVKRIKYSPDYFTFGDVQHDKDTVKDLGFAGFKVLYPINSKDKNDEIVSMLGASYFRVIGAGQVYGLSARGLAIDTALPSGEEFPRFKEFWIERPKPTDKRLTIYALLDSPRATGAYKFVVMPGRDTVVDVQSKIYLRDKVGKLGVAPLTSMFLFGPNQPSPANNYRPELHDSNGLSIHAGNGEWIWRPLNNPKHLAVSSFSMENPQGFGLLQRGRDFSRFEDLDDRYDLRPSAWVTPKGEWGKGSVELVEIPTNDETNDNIVAYWTPDQLPEPGKEMNFKYTITFSRDEDKLHAPDNAWVQQTRRSTGDVKQSNLIRQPDGTIAFVVDFTGAEMKKLPEDTPVTAQTSIGDNGEIVESTVRYNPVTKGWRLVMRVKVKDAKKTTEMRAALVNADQTLSETWSYQLPANE
notes: OpgG (glucans biosynthesis protein G) of Escherichia coli, gene amplified from a colony of E. coli BL21(DE3), GenBank CAQ31569.1; theoretical mass 56543 Da; Cloned between the XhoI and NdeI sites of pET30a; also called MdoG; source: E. coli BL21(DE3), purified (HisTrap FF crude)
With B3 the “stoichiometry N” value [1] was 2.

B4: EcOpgG D361N mutant, without signal sequence, C-terminal His6-tag (enzyme, Escherichia coli, UniProt P33136 23-511, looked up)
chain: FSIDDVAKQAQSLAGKGYETPKSNLPSVFRDMKYADYQQIQFNHDKAYWNNLKTPFKLEFYHQGMYFDTPVKINEVTATAVKRIKYSPDYFTFGDVQHDKDTVKDLGFAGFKVLYPINSKDKNDEIVSMLGASYFRVIGAGQVYGLSARGLAIDTALPSGEEFPRFKEFWIERPKPTDKRLTIYALLDSPRATGAYKFVVMPGRDTVVDVQSKIYLRDKVGKLGVAPLTSMFLFGPNQPSPANNYRPELHDSNGLSIHAGNGEWIWRPLNNPKHLAVSSFSMENPQGFGLLQRGRDFSRFEDLDDRYDLRPSAWVTPKGEWGKGSVELVEIPTNDETNNNIVAYWTPDQLPEPGKEMNFKYTITFSRDEDKLHAPDNAWVQQTRRSTGDVKQSNLIRQPDGTIAFVVDFTGAEMKKLPEDTPVTAQTSIGDNGEIVESTVRYNPVTKGWRLVMRVKVKDAKKTTEMRAALVNADQTLSETWSYQLPANE
notes: made from the EcOpgG plasmid of m2; One monomer in the asymmetric unit; the second chain of the dimer is a symmetry mate; source: E. coli BL21(DE3), purified (HisTrap FF crude)
B4: binds [3].
